# Earlier results, collected in publication PMC3727217.
# Target: His87 (UniProt position 88, YGATGHPGIIP)
# Experiment: NMR
# Conditions: not stated (context implies ligand-free FKBP12; ref 47 studied both the absence and presence of ligands)
substance,measurement,value
FK506-binding protein FKBP12 (peptidyl-prolyl cis-trans isomerase FKBP1A) (Homo sapiens),pKa,5.92
